T1: Dr αE-catenin (Danio rerio (zebrafish), UniProt Q9PVF8 1-907)
T1 sequence (looked up): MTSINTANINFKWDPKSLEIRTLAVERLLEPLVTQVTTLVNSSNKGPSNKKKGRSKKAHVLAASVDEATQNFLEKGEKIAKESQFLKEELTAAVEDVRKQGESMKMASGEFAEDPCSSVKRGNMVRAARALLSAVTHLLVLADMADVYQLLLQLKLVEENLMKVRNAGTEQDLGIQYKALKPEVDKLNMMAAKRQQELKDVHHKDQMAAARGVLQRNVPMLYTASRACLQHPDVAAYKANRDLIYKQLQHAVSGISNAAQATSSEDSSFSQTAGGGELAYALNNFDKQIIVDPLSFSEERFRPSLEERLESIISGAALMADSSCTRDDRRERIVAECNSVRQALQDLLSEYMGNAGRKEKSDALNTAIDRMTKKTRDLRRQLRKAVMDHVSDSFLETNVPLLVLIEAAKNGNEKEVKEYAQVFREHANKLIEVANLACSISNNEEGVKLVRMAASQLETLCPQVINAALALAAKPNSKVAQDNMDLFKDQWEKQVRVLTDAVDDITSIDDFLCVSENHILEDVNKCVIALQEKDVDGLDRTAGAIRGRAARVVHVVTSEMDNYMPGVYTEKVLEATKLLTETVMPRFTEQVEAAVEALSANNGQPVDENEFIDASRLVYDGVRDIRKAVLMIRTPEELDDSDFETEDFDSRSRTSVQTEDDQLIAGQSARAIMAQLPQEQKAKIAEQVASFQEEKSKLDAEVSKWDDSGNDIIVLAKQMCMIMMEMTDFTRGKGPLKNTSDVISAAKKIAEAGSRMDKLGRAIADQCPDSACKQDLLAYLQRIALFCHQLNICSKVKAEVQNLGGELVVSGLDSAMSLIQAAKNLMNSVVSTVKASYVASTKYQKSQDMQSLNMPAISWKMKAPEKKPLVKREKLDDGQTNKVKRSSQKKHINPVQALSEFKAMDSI

B1: Dr β-catenin (natural protein, Danio rerio (zebrafish), UniProt F1QGH7 1-780, looked up)
chain: MATQSDLMELEMAMDPDRKAAVSHWQQQSYLDSGIHSGATTTAPSLSGKGNPEDDDVDNQVLYEWEQGFNQSFNQEQVADIDGQYAMTRAQRVRAAMFPETLDEGMQIPSTQFDSAHPTNVQRLAEPSQMLKHAVVNLINYQDDAELATRAIPELTKLLNDEDQVVVNKAAVMVHQLSKKEASRHAIMRSPQMVSAIVRTMQNTNDVETARCTSGTLHNLSHHREGLLAIFKSGGIPALVKMLGSPVDSVLFYAITTLHNLLLHQEGAKMAVRLAGGLQKMVALLNKTNVKFLAITTDCLQILAYGNQESKLIILASGGPQALVNIMRTYTYEKLLWTTSRVLKVLSVCSSNKPAIVEAGGMQALGLHLTDPSQRLVQNCLWTLRNLSDAATKQEGMEGLLGTLVQLLGSDDINVVTCAAGILSNLTCNNYKNKMMVCQVGGIEALVRTVLRAGDREDITEPAICALRHLTSRHQDAEMAQNAVRLHYGLPVVVKLLHPPSHWPLIKATVGLIRNLALCPANHAPLREQGAIPRLVQLLVRAHQDTQRRTSMGGTQQQFVEGVRMEEIVEGCTGALHILARDIHNRIVIRGLNTIPLFVQLLYSPIENIQRVAAGVLCELAQDKEAAEAIEAEGATAPLTELLHSRNEGVATYAAAVLFRMSEDKPQDYKKRLSVELTSSLFRTEPMTWNETGDLGLDIGAQGEPLGYRQDDPSYRSFHSGGYGQDAMGMDPMMEHEMAGHHPGPDYPVDGLPDLGHTQDLIDGLPPGDSNQLAWFDTDL

What was measured:
[1] = target: E-cadherin/β-catenin complex (Mus musculus) (UniProt P09803); details: cited from earlier work
Dr αE-catenin = target: T1, Dr αE-catenin; test: reconstitution of the complex on the coverslip, read by optical trap

Sequence of E-cadherin/β-catenin complex (Mus musculus) (P09803 157-884, chain 1 of 2): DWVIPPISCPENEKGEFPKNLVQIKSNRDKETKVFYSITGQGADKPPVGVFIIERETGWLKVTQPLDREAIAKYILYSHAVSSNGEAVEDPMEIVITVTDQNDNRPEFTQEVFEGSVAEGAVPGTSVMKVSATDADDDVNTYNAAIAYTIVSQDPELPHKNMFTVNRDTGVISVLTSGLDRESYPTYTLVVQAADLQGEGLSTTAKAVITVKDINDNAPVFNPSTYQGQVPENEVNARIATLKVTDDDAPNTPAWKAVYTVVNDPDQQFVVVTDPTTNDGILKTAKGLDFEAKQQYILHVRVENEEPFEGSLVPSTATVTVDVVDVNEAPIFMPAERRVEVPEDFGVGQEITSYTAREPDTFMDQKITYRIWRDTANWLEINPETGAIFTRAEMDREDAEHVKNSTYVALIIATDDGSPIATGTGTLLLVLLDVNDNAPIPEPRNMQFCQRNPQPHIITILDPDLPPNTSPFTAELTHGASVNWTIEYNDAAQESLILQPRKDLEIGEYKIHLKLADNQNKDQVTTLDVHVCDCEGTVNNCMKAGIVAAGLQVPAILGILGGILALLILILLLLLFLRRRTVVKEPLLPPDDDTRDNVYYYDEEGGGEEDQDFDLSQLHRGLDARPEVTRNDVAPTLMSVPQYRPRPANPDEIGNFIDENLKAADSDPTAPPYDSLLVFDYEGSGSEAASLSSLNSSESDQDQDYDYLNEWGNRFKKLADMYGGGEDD
Sequence of E-cadherin/β-catenin complex (Mus musculus) (Q02248 2-781, chain 2 of 2, further chain): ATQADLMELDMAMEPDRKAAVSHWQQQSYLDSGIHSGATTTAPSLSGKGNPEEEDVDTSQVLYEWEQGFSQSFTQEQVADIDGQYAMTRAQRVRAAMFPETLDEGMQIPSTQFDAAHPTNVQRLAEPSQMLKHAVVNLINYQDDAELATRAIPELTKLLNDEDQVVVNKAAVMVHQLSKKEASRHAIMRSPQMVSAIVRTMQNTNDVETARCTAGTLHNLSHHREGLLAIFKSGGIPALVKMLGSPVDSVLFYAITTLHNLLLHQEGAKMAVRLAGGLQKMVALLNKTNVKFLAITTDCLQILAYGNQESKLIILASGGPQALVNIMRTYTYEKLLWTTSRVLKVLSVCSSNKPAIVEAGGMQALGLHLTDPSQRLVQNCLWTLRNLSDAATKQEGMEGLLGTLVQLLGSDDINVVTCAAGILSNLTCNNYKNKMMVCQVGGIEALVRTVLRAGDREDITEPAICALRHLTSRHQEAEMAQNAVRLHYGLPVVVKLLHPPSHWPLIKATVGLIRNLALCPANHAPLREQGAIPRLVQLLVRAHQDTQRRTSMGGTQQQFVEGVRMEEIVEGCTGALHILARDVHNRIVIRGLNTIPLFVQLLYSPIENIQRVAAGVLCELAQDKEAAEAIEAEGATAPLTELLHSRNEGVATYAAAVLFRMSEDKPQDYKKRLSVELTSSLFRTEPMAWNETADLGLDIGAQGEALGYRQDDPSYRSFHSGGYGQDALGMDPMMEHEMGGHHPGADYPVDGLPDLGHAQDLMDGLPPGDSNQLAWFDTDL

Row | Molecule | Kd [1] [nM] | binding result (Dr αE-catenin)
1 | αE-catenin (from UniProt P26231) | 1 | 
2 | B1 |  | binds
